As a reminder, the EC50 is the concentration needed to bring the measured effect to its halfway point. A word on the EC50 (read off the curve): it is the concentration at which the effect is half-maximal. The low end stands for higher potency in that assay, the high end for lower potency in that assay. For orientation: IC50 means the midpoint of a concentration-inhibition curve. A lower IC50 goes with inhibition by little substance.

The values below come from patent publication US20250171534A1 (D2M BIOTHERAPEUTICS, published 2025).

Experiment [1] concerns the target T1, human LILRB1 expressed on cells (human, UniProt Q8NHL6 24-650).
T1 construct: In 293T cells it was expressed from pCMV3-LILRB1-GFP; also called CHO-LILRB1; Jurkat-LILRB1
Kind of experiment: flow cytometry, CHO-LILRB1 cells. Background: Flow cytometry measures light scatter and fluorescence of single cells or particles in a stream.
Description: (§1) 50 μL CHO-LILRB1 or CHO-LILRB2 cells (4×10⁴ cells) were added to each well in a 96-well U-bottom plate. […] After an incubation at room temperature for 30 minutes, the plate was centrifuged, and cells were washed with PBS 3 times. […] After mixing for 30 minutes at room temperature, cells were washed with PBS twice.

Experiment [2] has as its target T2, LILRB3 expressed on cells (human, UniProt O75022 24-631).
T2 construct: whole, on cells; Expressed with a GFP tag from the bought plasmid; also called human LILRB3; CHO-LILRB3
The experiment is described as follows: flow cytometry on 293T cells transiently expressing LILRB3, APC anti-human Fc; gMFI as fold to IgG staining.
Description: (§2) The antibody binding signals were measured by flow cytometry with geometric MFI (gMFI). […] IgG1 is an isotype control (IgG).
(§3) The APC signals in GFP+ cells were quantified by flow cytometry.

Experiment [3] addresses T3, human LILRB2 expressed on cells (human, UniProt Q8N423 22-597).
T3 construct: In 293T cells it was expressed from pCMV3-LILRB2-GFP; also called CHO-LILRB2; Jurkat-LILRB2
Kind of experiment: flow cytometry on 293T cells transiently expressing LILRB2, APC anti-human Fc; gMFI as fold to IgG staining.
Description: as §2, §3

Experiment [4] concerns the target T4, LILRA4 expressed on 293T cells (UniProt P59901 24-499, limits assumed).
T4 construct: whole, on cells; GFP-tagged, transient
The experiment is described as follows: flow cytometry on 293T cells transiently expressing LILRA4, APC anti-human Fc; gMFI as fold to IgG staining.
Description: as §2, §3

Experiment [5] deals with T5, LILRA2 expressed on 293T cells (UniProt Q8N149 24-483, limits assumed).
T5 construct: whole, on cells; GFP-tagged, transient
The experiment is described as follows: flow cytometry on 293T cells transiently expressing LILRA2, APC anti-human Fc; gMFI as fold to IgG staining.
Description: as §2, §3

Experiment [6] deals with T6, LILRA5 expressed on 293T cells (UniProt A6NI73 42-299, limits assumed).
T6 construct: whole, on cells; GFP-tagged, transient
Kind of experiment: flow cytometry on 293T cells transiently expressing LILRA5, APC anti-human Fc; gMFI as fold to IgG staining.
Description: as §2, §3

Experiment [7] addresses T7, LILRA3 expressed on 293T cells (UniProt Q8N6C8 24-439, limits assumed).
T7 construct: whole, on cells; GFP-tagged, transient
Kind of experiment: flow cytometry on 293T cells transiently expressing LILRA3, APC anti-human Fc; gMFI as fold to IgG staining.
Description: as §2, §3

The target of experiment [8] is T8, LILRA1 expressed on cells (human, UniProt O75019 17-489).
T8 construct: whole, on cells; GFP-tagged; also called human LILRA1; CHO-LILRA1
Kind of experiment: flow cytometry on 293T cells transiently expressing LILRA1, APC anti-human Fc; gMFI as fold to IgG staining.

The target of experiment [9] is T9, LILRA6 expressed on cells (human, UniProt Q6PI73 24-481).
T9 construct: whole, on cells; GFP-tagged; also called human LILRA6; CHO-LILRA6
The experiment is described as follows: flow cytometry on 293T cells transiently expressing LILRA6, APC anti-human Fc; gMFI as fold to IgG staining.
Description: as §2, §3

The target of experiment [10] is T10, LILRB4 expressed on 293T cells (UniProt Q8NHJ6 22-448, limits assumed).
T10 construct: whole, on cells; GFP-tagged, transient
Kind of experiment: flow cytometry on 293T cells transiently expressing LILRB4, APC anti-human Fc; gMFI as fold to IgG staining.
Description: as §2, §3

The target of experiment [11] is T1, human LILRB1 expressed on cells. The experiment is described as follows: flow cytometry, CHO-LILRB1 cells. The source holds these as a separate data set.
Description: IgG1 is an isotype control (IgG).
(§4) Specifically, 50 μL CHO-LILRB1 or CHO-LILRB2 cells (4×10⁴ cells) were added to each well of a 96-well U-bottom plate. […] After an incubation for 30 minutes, the plate was centrifuged and cells were washed with PBS 3 times. […] After mixing for 30 minutes at room temperature, cells were washed with PBS twice.
(§5) EC50 values (shown in the left panel of FIG. 7C) were calculated based on the non-linear fitting curves by GraphPad Prism software. […] EC50 values (shown in right panel of FIG. 7C) were calculated based on the non-linear fitting curves by GraphPad Prism software.
Experiment [12] shares this target. The experiment is described as follows: flow cytometry, CHO-LILRB1 cells. This is another data set of the same source.
Description: IgG1 is an isotype control (IgG).
as §4, §5
The target of experiment [13] is T11, LILRB5 expressed on 293T cells (UniProt O75023 24-590, limits assumed).
T11 construct: whole, on cells; GFP-tagged, transient
Kind of experiment: flow cytometry on 293T cells transiently expressing LILRB5, APC anti-human Fc; gMFI as fold to IgG staining.
Description: as §2, §3

For experiment [14], the target named is T1, human LILRB1 expressed on cells. The experiment is described as follows: flow cytometry, CHO-LILRB1 cells; blocked ligand: APC HLA-G trimer tetramer.
Description: as §1

Read-outs that look alike come from different tables or passages of the source.

T1 sequence (Q8NHL6 other isoform, or with tags, fused parts or gaps limits assumed): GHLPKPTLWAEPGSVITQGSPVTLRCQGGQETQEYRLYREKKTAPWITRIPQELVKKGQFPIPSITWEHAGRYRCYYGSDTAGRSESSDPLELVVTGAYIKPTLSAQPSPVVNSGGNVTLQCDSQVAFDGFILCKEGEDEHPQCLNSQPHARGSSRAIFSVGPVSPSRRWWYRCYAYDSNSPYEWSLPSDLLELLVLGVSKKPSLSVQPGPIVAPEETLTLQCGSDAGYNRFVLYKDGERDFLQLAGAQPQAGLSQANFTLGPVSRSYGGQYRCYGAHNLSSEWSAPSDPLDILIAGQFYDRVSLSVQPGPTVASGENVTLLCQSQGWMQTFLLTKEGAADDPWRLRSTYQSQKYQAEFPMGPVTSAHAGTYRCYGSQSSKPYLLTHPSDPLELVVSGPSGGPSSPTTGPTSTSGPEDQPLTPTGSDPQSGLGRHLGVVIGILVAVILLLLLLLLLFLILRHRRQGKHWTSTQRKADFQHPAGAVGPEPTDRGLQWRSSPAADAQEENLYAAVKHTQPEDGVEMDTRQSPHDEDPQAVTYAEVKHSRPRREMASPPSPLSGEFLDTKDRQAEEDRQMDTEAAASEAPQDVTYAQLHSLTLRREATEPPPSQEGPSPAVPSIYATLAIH
T11 sequence (O75023 24-590 limits assumed): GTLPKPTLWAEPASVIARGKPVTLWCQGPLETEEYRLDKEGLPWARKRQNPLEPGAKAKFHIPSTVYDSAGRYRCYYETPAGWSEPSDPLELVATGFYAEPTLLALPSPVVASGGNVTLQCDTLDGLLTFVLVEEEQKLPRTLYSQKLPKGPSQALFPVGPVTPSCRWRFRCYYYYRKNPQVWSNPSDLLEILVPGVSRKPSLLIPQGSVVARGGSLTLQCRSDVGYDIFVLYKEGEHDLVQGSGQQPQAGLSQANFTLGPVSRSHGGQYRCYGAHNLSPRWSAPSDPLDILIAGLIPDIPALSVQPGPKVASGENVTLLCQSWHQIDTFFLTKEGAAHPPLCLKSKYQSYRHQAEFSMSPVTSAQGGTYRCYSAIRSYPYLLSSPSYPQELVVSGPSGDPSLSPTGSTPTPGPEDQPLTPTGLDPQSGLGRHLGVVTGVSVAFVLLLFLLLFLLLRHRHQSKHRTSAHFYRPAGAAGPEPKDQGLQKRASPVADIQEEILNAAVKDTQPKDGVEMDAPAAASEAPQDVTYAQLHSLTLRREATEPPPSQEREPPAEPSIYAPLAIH
T3 sequence (Q8N423 other isoform, or with tags, fused parts or gaps limits assumed): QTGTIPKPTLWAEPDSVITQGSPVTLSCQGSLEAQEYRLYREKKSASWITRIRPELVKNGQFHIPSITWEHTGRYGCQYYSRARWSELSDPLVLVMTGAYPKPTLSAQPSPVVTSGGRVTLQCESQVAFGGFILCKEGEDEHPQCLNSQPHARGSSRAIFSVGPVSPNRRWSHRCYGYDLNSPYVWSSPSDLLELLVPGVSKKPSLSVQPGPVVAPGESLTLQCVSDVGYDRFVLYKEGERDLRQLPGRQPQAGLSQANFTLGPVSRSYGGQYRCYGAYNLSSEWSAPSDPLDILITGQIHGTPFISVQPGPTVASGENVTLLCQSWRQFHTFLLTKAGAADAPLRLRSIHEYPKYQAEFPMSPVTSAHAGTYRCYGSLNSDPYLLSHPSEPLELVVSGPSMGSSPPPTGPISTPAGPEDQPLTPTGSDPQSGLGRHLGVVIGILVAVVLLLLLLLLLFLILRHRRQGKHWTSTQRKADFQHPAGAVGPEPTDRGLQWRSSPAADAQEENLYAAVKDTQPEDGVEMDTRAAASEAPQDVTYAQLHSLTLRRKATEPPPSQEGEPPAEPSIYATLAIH
T4 sequence (P59901 24-499 limits assumed): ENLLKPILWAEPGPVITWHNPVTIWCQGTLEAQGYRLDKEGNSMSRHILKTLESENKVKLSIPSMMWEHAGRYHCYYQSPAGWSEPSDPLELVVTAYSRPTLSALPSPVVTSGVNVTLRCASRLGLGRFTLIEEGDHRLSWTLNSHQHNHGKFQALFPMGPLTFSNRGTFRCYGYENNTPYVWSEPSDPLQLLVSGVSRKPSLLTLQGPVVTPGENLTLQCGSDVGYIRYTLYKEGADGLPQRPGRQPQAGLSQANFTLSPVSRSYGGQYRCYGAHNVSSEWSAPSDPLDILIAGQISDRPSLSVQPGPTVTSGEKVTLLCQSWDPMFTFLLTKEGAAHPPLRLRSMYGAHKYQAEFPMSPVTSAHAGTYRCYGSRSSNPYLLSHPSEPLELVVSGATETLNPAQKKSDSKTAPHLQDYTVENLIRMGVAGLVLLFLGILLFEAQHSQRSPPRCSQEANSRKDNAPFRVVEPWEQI
T7 sequence (Q8N6C8 24-439 limits assumed): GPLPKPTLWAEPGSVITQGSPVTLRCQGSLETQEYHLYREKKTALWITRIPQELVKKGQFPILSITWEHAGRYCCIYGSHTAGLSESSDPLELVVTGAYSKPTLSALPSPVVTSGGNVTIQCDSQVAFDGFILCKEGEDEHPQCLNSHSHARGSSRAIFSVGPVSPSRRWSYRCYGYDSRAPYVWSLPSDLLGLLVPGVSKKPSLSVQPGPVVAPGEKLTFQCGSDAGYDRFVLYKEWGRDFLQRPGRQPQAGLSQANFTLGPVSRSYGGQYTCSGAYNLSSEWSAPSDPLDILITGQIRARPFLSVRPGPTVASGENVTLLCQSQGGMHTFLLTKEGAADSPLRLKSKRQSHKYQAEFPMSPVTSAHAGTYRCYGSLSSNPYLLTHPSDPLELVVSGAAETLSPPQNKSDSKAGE
T6 sequence (A6NI73 42-299 limits assumed): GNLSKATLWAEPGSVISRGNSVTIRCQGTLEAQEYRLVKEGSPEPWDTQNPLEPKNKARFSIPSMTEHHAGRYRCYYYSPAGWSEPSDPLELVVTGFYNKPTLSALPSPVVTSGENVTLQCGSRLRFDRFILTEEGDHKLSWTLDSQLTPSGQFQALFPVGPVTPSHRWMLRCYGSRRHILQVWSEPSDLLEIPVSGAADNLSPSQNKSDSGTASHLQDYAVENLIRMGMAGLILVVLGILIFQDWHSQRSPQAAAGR
T8 sequence (O75019 17-489): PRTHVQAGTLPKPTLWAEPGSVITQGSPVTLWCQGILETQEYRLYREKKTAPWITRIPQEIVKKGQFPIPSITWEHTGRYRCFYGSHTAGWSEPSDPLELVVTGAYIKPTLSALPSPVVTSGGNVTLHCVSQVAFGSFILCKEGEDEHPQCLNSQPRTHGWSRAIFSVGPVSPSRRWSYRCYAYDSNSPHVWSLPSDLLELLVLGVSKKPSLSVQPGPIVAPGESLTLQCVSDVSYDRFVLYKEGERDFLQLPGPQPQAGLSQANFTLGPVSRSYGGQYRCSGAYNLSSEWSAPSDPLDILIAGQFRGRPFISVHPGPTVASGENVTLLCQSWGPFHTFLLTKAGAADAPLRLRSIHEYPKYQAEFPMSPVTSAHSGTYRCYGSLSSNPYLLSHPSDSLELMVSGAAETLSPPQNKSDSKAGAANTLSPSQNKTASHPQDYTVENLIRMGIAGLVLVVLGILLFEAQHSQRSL
T5 sequence (Q8N149 24-483 limits assumed): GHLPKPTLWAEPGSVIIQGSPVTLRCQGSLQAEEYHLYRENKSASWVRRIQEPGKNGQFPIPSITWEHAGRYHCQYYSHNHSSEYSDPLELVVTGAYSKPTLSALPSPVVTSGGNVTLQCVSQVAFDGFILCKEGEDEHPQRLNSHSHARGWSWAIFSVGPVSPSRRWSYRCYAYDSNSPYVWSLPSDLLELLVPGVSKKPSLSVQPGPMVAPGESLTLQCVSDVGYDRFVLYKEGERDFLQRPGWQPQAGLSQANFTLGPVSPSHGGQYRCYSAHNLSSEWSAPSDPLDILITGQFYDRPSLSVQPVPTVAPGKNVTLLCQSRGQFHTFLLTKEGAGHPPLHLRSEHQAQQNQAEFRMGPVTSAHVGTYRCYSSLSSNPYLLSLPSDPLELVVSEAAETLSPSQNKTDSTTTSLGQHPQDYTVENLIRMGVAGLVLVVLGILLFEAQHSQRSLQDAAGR
T9 sequence (Q6PI73 24-481): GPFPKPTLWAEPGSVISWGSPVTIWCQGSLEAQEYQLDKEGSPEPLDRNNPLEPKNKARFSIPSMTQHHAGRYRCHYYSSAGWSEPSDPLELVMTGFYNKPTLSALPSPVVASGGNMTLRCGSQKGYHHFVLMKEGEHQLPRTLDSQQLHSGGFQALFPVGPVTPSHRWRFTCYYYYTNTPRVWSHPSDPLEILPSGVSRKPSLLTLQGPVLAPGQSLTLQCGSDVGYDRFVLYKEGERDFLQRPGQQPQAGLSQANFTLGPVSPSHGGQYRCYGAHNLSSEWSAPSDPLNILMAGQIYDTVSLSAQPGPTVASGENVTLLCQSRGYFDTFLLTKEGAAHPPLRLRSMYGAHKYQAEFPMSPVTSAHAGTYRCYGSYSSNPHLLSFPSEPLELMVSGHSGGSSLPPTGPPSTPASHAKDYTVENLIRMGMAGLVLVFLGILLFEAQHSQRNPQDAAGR

B1: Anti-LILRB1 antibody 3C1 (antibody, human IgG4 S228P, lambda, V domains shown)
VH: EVQLVESGGGLVQPGGSLRLSCAASGFTFSDYDMHWVRQATGKGLEWVATIDTAGDTYYPDSVRGRFTISRENAKNSLSLQMNSLRAGDTAVYFCARDVPGTGFDHWGQGTLVTVSS
VL: SSELTQDPAVSVALGQTVRITCQGDSLRSYYESWYQQKPGQAPVLVIYGKNNRPSGIPDRFSGSISGNTASLTITGTQAEDEADYYCNSRDNSGDHWVFGGGTRLTVLG
Take B1: the EC50 worked out at 0.033 µg/mL in experiment [1] and 0.016 µg/mL in experiment [12]. Besides, the binding result in experiment [2], in [3], in experiment [4], in [5], in [6] and in experiment [7] was “no binding (tested: 5 µg/mL)” each time. In addition, the binding result in [8], in experiment [9], in [10] and in [13] was “no binding (tested: 5 µg/mL)” each time. Further, the “EC50 (read off the curve)” value in [11] was about 0.02 µg/mL. Also, the “gMFI (max)” value in experiment [12] worked out at 23000. This molecule registered an IC50 in [14] of 0.012 µg/mL.
